According to the Human Domainome abundance scans (Beltran et al. 2025):

B1: RUN and FYVE domain-containing protein 1, residues 639 to 698; numbered along this chain, Q96T51 (parent)
chain: WLKDDEATHCRQCEKEFSISRRKHHCRNCGHIFCNTCSSNELALPSYPKPVRVCDSCHTL

Variants of: B1
Experiment: abundance fitness (aPCA) (normalised: wild type 0, dead -1); higher = more abundant; growth selection in yeast, the domain comes from the species named
Details: Homo sapiens

Abundance fitness: each site, then its substitutions
N40: D -0.382, A -0.163, G -0.03, C -0.933, E -0.172
S39: P -0.251, I -0.229, W -0.657, N -0.036, G 0.185, T 0.084, D 0.128, F -0.305, C -1.14, Q 0.091, H -0.421, E 0.079, A 0.14, L -0.102, Y -0.428, R -0.011
R21: W -1.06, S -0.355, M -0.239, G -0.278, V -0.054, C -1.14, L -0.195, A -0.04, D -1.25, K -0.184, F -0.265, I -0.227, N -0.711, T 0.13, Y -0.801, H -0.434, P -0.503, Q -0.069
K23: Y -0.575, N -0.491, T -0.204, C -0.176, V -0.257, D -0.315, F -0.362, Q -0.261, W -0.243, E -0.165, R -0.069, G -0.034, S -0.189, P -0.494, H -0.326, I -0.207, L -0.433, M -0.137
R27: M 0.019, S -0.003, T 0.095, L 0.069, N 0, W -0.144, A 0.189, H 0.316, F 0.176, C -0.067, Q 0.112, I -0.077, G 0.153, K 0.04, V -0.262, E 0.085, D 0.072, P 0.219
R22: L -0.098, S -0.32, P -0.303, E 0.014, H -0.854, M 0.109, Q -0.1, V 0, D -0.141, I -0.1, Y -0.356, C -0.494, T -0.066, W -0.18, N -0.24, A -0.102
H31: L -0.012, E -0.277, Q -0.019, N -0.237, W -0.017, C -0.445, S -0.225, M -0.113, F 0.027, D -0.126, I -0.113, K -0.143, T -0.423, A -0.204, Y -0.106, V -0.626, G 0.08, P -0.711, R -0.142
H25: A 0.121, T -0.118, I -0.13, K 0.012, N -0.311, F -0.045, R 0.151, E -0.02, M 0.051, C -0.169, V 0.044, D -0.176, S 0.07, Y 0.097, Q 0.169, W 0.128, P -0.065
S38: V -0.008, A 0.124, G -0.067, M -0.425, F -0.594, K -0.589, Q -0.432, T -0.057, Y -0.633, I -0.38, C -0.029, E -0.954, W -0.282, P -0.727, H -0.545, D -0.665, R -0.122
C26: W -0.748, Q -0.855, M -0.76, G -0.709, A -0.694, S -0.636, L -0.763, N -0.418, T -0.832, R -0.804, E -0.655, P -0.508, F -0.89, H -0.628, Y -0.77, V -0.913, I -0.866, D -0.794, K -0.677
G30: S -0.503, D -0.414, R -0.428, Q -0.326
